Columns and labels:
[1] = target: F2-Arg finger 3 Asp2Ala finger 3 helix position 2 D to A (synthetic) (UniProt P08046); settings: about four-fold reduced affinity versus F2-Arg; phage ELISA, Zn, 20 C
[2] = target: Zif268 DNA-binding domain finger 3 Asp2Ala finger 3 helix position 2 D to A (UniProt P08046); settings: about four-fold reduced affinity versus wild-type Zif268; phage ELISA, Zn, 20 C
[3] = tested on: anti-ras optimised zinc finger peptide (F1 position +3 Asn) (synthetic); settings: apparent Kd; phage display, Zn
[4] = tested on: anti-ras lead zinc finger peptide (designed) (synthetic); settings: apparent Kd; phage display

GCGGTGGCG (double strand) [F2-Arg consensus site]
binding signal [1]: 4 fold

GCGTGGGCG (double strand) [Zif268 consensus site]
binding signal [2]: 4 fold

GACGGCGCC (double strand)
Kd [3]: 3 nM
Kd [4]: 17 nM

From US6866997
